Values belong to the molecule of their own block, whether it stands above or below them.
What was measured:
Format in all cases: biochemical
Design in all cases: key: +: Detected; −: Not detected
[1] = Synthesis of N-acylamino acids from various fatty acids using purified acylamino acid synthetase, UPLC-MS detection
Procedure: 0.1 mL of a reaction solution containing 50 mM Tris-HCl, 5 mM amino acid, 5 mM sodium fatty acid (3 mM of sodium palmitate or sodium stearate), 10 mM ATP, 10 mM MgCl2, 1 mM DTT, 200 μg/mL of the purified enzyme, pH 8.0 was shaken at 25° C. for 24 hours. When sodium palmitate or sodium stearate was used, methanol at a final concentration of 10% (v/v) was contained in the reaction solution. As the amino acid, L-Asp was used in AtGH3-6, OsGH3-8, AtGH3-5, AtGH3-12, L-Ile was used in AtJAR1, L-Ala was used in AtGH3-10, SsGH3, L-Glu was used in AtGH3-17, Gly was used in CfHP, L-Lys was used in PsIAAL, and L-Cys was used in PaHP. After completion of the reaction, 0.4 mL of the reaction stop solution (1% (v/v) phosphoric acid, 75% (v/v) methanol) was added, and the mixture was filtrated through the filter followed by being subjected to the UPLC-MS analysis to detect a signal of a molecular weight corresponding to the N-acylamino acid.
The condition for the UPLC-MS analysis is as follows.
Apparatus: ACQUITY UPLC (Waters)
Column: ACQUITY UPLC BEH C18 1.7 μm 2.1×100 mm Column (Waters), mobile phase A: 0.1% formic acid; mobile phase B: acetonitrile
• Flow rate: 0.6 mL/minute • Injection amount: 2 μL • Column temperature: 40° C. • Ionization method: ESI-negative
As a result of the UPLC-MS analysis, the signal of the molecular weight corresponding to the appropriate N-acylamino acid was confirmed in the reaction solution containing the enzyme in combination with sodium fatty acid shown in Table 7 below.

[2] = Synthesis of N-caprinoylamino acid using purified acylamino acid synthetase, UPLC-MS detection; details: +ATP
Summary of the method: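 Purified enzyme (50 μg) with 5 mM amino acid, 5 mM sodium caprate, 10 mM ATP, 10 mM MgCl2, 1 mM DTT in Tris-HCl pH 8.0, 24 h at 25° C; product detected by UPLC-MS (ESI-negative) as the N-caprinoyl amino acid mass signal.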

[3] = Synthesis of N-caprinoyl-amino acid derivative, N-caprinoyl-D-amino acid and N-caprinoyl-peptide using purified acylamino acid synthetase, UPLC-MS detection; details: +ATP
Summary of the method: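 Purified enzyme (50 μg/mL) was incubated with 5 mM sodium caprate, 5 mM amino acid derivative, D-amino acid or peptide, 10 mM ATP, 10 mM MgCl2 and 1 mM DTT in 50 mM Tris-HCl, pH 8.0, for 24 h at 25 °C. After acidic methanol stop, UPLC-MS looked for the mass of the N-caprinoyl product.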

[4] = substrates GABA and sodium caprate
[5] = substrates Gly and sodium caprate
[6] = substrates L-Ala and sodium caprate
[7] = substrates L-Arg and sodium caprate
[8] = substrates L-Asn and sodium caprate
[9] = substrates L-Asp and sodium caprate
[10] = substrates L-Cys and sodium caprate
[11] = substrates L-Gln and sodium caprate
[12] = substrates L-Glu and sodium caprate
[13] = substrates L-His and sodium caprate
[14] = substrates L-Ile and sodium caprate
[15] = substrates L-Leu and sodium caprate
[16] = substrates L-Lys and sodium caprate
[17] = substrates L-Met and sodium caprate
[18] = substrates L-Phe and sodium caprate
[19] = substrates L-Pro and sodium caprate
[20] = substrates L-Ser and sodium caprate
[21] = substrates L-Thr and sodium caprate
[22] = substrates L-Trp and sodium caprate
[23] = substrates L-Tyr and sodium caprate
[24] = substrates L-Val and sodium caprate
[25] = substrates β-Ala and sodium caprate
[26] = substrates Carnosine and sodium caprate
[27] = substrates D-Ala and sodium caprate
[28] = substrates D-Asp and sodium caprate
[29] = substrates D-Cys and sodium caprate
[30] = substrates D-Glu and sodium caprate
[31] = substrates D-Ile and sodium caprate
[32] = substrates D-Lys and sodium caprate
[33] = substrates L-Asp-L-Phe and sodium caprate
[34] = substrates L-Gly-L-Gly and sodium caprate
[35] = substrates Sarcosine and sodium caprate
[36] = substrates Taurine and sodium caprate

signal of molecular weight corresponding to N-acylamino acid ([1]; substrates L-Ala and Capric acid): + | signal of molecular weight corresponding to N-acylamino acid ([1]; substrates L-Ala and Caproic acid): + | signal of molecular weight corresponding to N-acylamino acid ([1]; substrates L-Ala and Caprylic acid): + | signal of molecular weight corresponding to N-acylamino acid ([1]; substrates L-Ala and Lauric acid): + | signal of molecular weight corresponding to N-acylamino acid ([1]; substrates L-Ala and Linoleic acid): − | signal of molecular weight corresponding to N-acylamino acid ([1]; substrates L-Ala and Palmitic acid): − | signal of molecular weight corresponding to N-acylamino acid ([1]; substrates L-Ala and myristic acid): + | signal of molecular weight corresponding to N-caprinoyl amino acid [2, 4]: − | signal of molecular weight corresponding to N-caprinoyl amino acid [2, 5]: + | signal of molecular weight corresponding to N-caprinoyl amino acid [2, 6]: + | signal of molecular weight corresponding to N-caprinoyl amino acid [2, 7]: − | signal of molecular weight corresponding to N-caprinoyl amino acid [2, 8]: − | signal of molecular weight corresponding to N-caprinoyl amino acid [2, 9]: + | signal of molecular weight corresponding to N-caprinoyl amino acid [2, 10]: − | signal of molecular weight corresponding to N-caprinoyl amino acid [2, 11]: − | signal of molecular weight corresponding to N-caprinoyl amino acid [2, 12]: − | signal of molecular weight corresponding to N-caprinoyl amino acid [2, 13]: − | signal of molecular weight corresponding to N-caprinoyl amino acid [2, 14]: + | signal of molecular weight corresponding to N-caprinoyl amino acid [2, 15]: + | signal of molecular weight corresponding to N-caprinoyl amino acid [2, 16]: − | signal of molecular weight corresponding to N-caprinoyl amino acid [2, 17]: + | signal of molecular weight corresponding to N-caprinoyl amino acid [2, 18]: − | signal of molecular weight corresponding to N-caprinoyl amino acid [2, 19]: − | signal of molecular weight corresponding to N-caprinoyl amino acid [2, 20]: + | signal of molecular weight corresponding to N-caprinoyl amino acid [2, 21]: − | signal of molecular weight corresponding to N-caprinoyl amino acid [2, 22]: − | signal of molecular weight corresponding to N-caprinoyl amino acid [2, 23]: − | signal of molecular weight corresponding to N-caprinoyl amino acid [2, 24]: + | signal of molecular weight corresponding to N-caprinoyl amino acid [2, 25]: + | signal of molecular weight corresponding to N-caprinoyl compound [3, 26]: − | signal of molecular weight corresponding to N-caprinoyl compound [3, 27]: + | signal of molecular weight corresponding to N-caprinoyl compound [3, 28]: + | signal of molecular weight corresponding to N-caprinoyl compound [3, 29]: − | signal of molecular weight corresponding to N-caprinoyl compound [3, 30]: + | signal of molecular weight corresponding to N-caprinoyl compound [3, 31]: − | signal of molecular weight corresponding to N-caprinoyl compound [3, 32]: − | signal of molecular weight corresponding to N-caprinoyl compound [3, 33]: − | signal of molecular weight corresponding to N-caprinoyl compound [3, 34]: + | signal of molecular weight corresponding to N-caprinoyl compound [3, 35]: − | signal of molecular weight corresponding to N-caprinoyl compound [3, 36]: +
B1: SsGH3: GH3 auxin-responsive promoter superfamily from Synechococcus sp. PCC 7335, His-tagged (protein)
chain: MVIHTIPKEILDSVASTGDVFAYHLLRSTGDIGETVLQYLLCLAAKVNLTGIEQDTYNADKVQEQLLNDILRSENKTLYGKKYNFDSLNVDSFRSSLPLTSYENYRESIDNVVQTGNYSQLVSEPITLFQESSGTTGKVKLIPRTNKFTLSAMRAFQAIEAVVQSHFQNPSSSSQRVLALVNTSPTKLTPTGIPRGTGTSGGLNDALQKFKLANYLIDIKYSSPSPVFLISNTEAAYYCHLLFGLLDSDINDISANFAATVLNAMKILEKAWTQLVEDIRQGKLYAGLDIDEATRRELEIRLRANPERARELQAYFEEGFEGILPRIWPSLSCIQCITTGSMQLYTDALRYYSGTVPFFSGSYGASEAWIGVNLDPEREPPAFVVTPHTAFFEFIPQDAIDQEQSATVCLTDLKPGESYEVVVTNMSGLYRYRVGDVVRCVGYHHKSPMIEFMYRRQTLLNLFGEKVSEDVIYSALSTTLREFGMAIQDIDYTCRHEFEGTPWRYVVYLEPADYEGCSSQHEMVQQRLDEVLCNLSDRYRQLREVGSIGSLKLKLVREGTFSGLKTRLLSQEHSDSQFKMPRLLTETALISFMESSL
modifications: His-tag; Synechococcus PCC 7335
notes: GH3 auxin-responsive promoter superfamily from Synechococcus sp; PCC 7335, His-tagged

signal of molecular weight corresponding to N-acylamino acid ([1]; substrates L-Cys and Capric acid): + | signal of molecular weight corresponding to N-acylamino acid ([1]; substrates L-Cys and Caproic acid): + | signal of molecular weight corresponding to N-acylamino acid ([1]; substrates L-Cys and Caprylic acid): + | signal of molecular weight corresponding to N-acylamino acid ([1]; substrates L-Cys and Lauric acid): + | signal of molecular weight corresponding to N-acylamino acid ([1]; substrates L-Cys and Linoleic acid): − | signal of molecular weight corresponding to N-acylamino acid ([1]; substrates L-Cys and Palmitic acid): − | signal of molecular weight corresponding to N-acylamino acid ([1]; substrates L-Cys and myristic acid): − | signal of molecular weight corresponding to N-acylamino acid ([1]; substrates L-Glu and Capric acid): + | signal of molecular weight corresponding to N-acylamino acid ([1]; substrates L-Glu and Caproic acid): + | signal of molecular weight corresponding to N-acylamino acid ([1]; substrates L-Glu and Caprylic acid): + | signal of molecular weight corresponding to N-acylamino acid ([1]; substrates L-Glu and Lauric acid): + | signal of molecular weight corresponding to N-acylamino acid ([1]; substrates L-Glu and Linoleic acid): − | signal of molecular weight corresponding to N-acylamino acid ([1]; substrates L-Glu and Palmitic acid): + | signal of molecular weight corresponding to N-acylamino acid ([1]; substrates L-Glu and myristic acid): + | signal of molecular weight corresponding to N-caprinoyl amino acid [2, 4]: + | signal of molecular weight corresponding to N-caprinoyl amino acid [2, 5]: + | signal of molecular weight corresponding to N-caprinoyl amino acid [2, 6]: + | signal of molecular weight corresponding to N-caprinoyl amino acid [2, 7]: − | signal of molecular weight corresponding to N-caprinoyl amino acid [2, 8]: + | signal of molecular weight corresponding to N-caprinoyl amino acid [2, 9]: + | signal of molecular weight corresponding to N-caprinoyl amino acid [2, 10]: + | signal of molecular weight corresponding to N-caprinoyl amino acid [2, 11]: + | signal of molecular weight corresponding to N-caprinoyl amino acid [2, 12]: + | signal of molecular weight corresponding to N-caprinoyl amino acid [2, 13]: − | signal of molecular weight corresponding to N-caprinoyl amino acid [2, 14]: + | signal of molecular weight corresponding to N-caprinoyl amino acid [2, 15]: + | signal of molecular weight corresponding to N-caprinoyl amino acid [2, 16]: − | signal of molecular weight corresponding to N-caprinoyl amino acid [2, 17]: + | signal of molecular weight corresponding to N-caprinoyl amino acid [2, 18]: + | signal of molecular weight corresponding to N-caprinoyl amino acid [2, 19]: − | signal of molecular weight corresponding to N-caprinoyl amino acid [2, 20]: + | signal of molecular weight corresponding to N-caprinoyl amino acid [2, 21]: + | signal of molecular weight corresponding to N-caprinoyl amino acid [2, 22]: + | signal of molecular weight corresponding to N-caprinoyl amino acid [2, 23]: + | signal of molecular weight corresponding to N-caprinoyl amino acid [2, 24]: + | signal of molecular weight corresponding to N-caprinoyl amino acid [2, 25]: + | signal of molecular weight corresponding to N-caprinoyl compound [3, 26]: − | signal of molecular weight corresponding to N-caprinoyl compound [3, 27]: − | signal of molecular weight corresponding to N-caprinoyl compound [3, 28]: + | signal of molecular weight corresponding to N-caprinoyl compound [3, 29]: − | signal of molecular weight corresponding to N-caprinoyl compound [3, 30]: + | signal of molecular weight corresponding to N-caprinoyl compound [3, 31]: + | signal of molecular weight corresponding to N-caprinoyl compound [3, 32]: − | signal of molecular weight corresponding to N-caprinoyl compound [3, 33]: − | signal of molecular weight corresponding to N-caprinoyl compound [3, 34]: + | signal of molecular weight corresponding to N-caprinoyl compound [3, 35]: − | signal of molecular weight corresponding to N-caprinoyl compound [3, 36]: +
B2: AtGH3-17: indole-3-acetic acid-amido synthetase GH3.17 from Arabidopsis thaliana, His-tagged (protein, listed as Arabidopsis thaliana)
chain: MIPSYDPNDTEAGLKLLEDLTTNAEAIQQQVLHQILSQNSGTQYLRAFLDGEADKNQQSFKNKVPVVNYDDVKPFIQRIADGESSDIVSAQPITELLTSSGTSAGKPKLMPSTAEELERKTFFYSMLVPIMNKYVDGLDEGKGMYLLFIKPEIKTPSGLMARPVLTSYYKSQHFRNRPFNKYNVYTSPDQTILCQDSKQSMYCQLLCGLVQRSHVLRVGAVFASAFLRAVKFLEDHYKELCADIRTGTVTSWITDSSCRDSVLSILNGPNQELADEIESECAEKSWEGILRRIWPKAKYVEVIVTGSMAQYIPTLEFYSGGLPLVSTMYASSECYFGINLNPLCDPADVSYTLLPNMAYFEFLPVDDKSHEEIHFATHSNTDDDDDALKEDLIVNLVNVEVGQYYEIVITTFTGLYRYRVGDILKVTGFHNKAPQFRFVQRRNVVLSIDTDKTSEEDLLNAVTQAKLNHLQHPSSLLLTEYTSYADTSSIPGHYVLFWELKPRHSNDPPKLDDKTMEDCCSEVEDCLDYVYRRCRNRDKSIGPLEIRVVSLGTFDSLMDFCVSQGSSLNQYKTPRCVKSGGALEILDSRVIGRFFSKRVPQWEPLGLDS
modifications: His-tag
notes: indole-3-acetic acid-amido synthetase GH3.17 from Arabidopsis thaliana, His-tagged

Reference: patent publication US12281340B2, “Method of producing N-acyl-amino group-containing compound” (AJINOMOTO CO., INC., priority 2018, dated 2025)
